Consider 1 molecule from paper PMC10704431, “A complex with poly(A)-binding protein and EWS facilitates the transcriptional function of oncogenic ETS transcription factors in prostate cells” (The Journal of Biological Chemistry, 2023).

The target of this test is T1, His-PABPC1 (UniProt P11940 1-636).
T1 construct: also called purified His-PABPC1; source: E. coli BL21 (pET28a), purified with nickel-nitrilotriacetic acid beads
Briefly: pull-down; purified GST-tagged EWS fragment on glutathione magnetic beads; purified His-tagged protein (PABPC1 or ERG) added, no third protein; immunoblot. Particulars: both partners purified. (Immunoblotting shows a protein as a band on a membrane.)

T1 sequence (P11940 whole entry): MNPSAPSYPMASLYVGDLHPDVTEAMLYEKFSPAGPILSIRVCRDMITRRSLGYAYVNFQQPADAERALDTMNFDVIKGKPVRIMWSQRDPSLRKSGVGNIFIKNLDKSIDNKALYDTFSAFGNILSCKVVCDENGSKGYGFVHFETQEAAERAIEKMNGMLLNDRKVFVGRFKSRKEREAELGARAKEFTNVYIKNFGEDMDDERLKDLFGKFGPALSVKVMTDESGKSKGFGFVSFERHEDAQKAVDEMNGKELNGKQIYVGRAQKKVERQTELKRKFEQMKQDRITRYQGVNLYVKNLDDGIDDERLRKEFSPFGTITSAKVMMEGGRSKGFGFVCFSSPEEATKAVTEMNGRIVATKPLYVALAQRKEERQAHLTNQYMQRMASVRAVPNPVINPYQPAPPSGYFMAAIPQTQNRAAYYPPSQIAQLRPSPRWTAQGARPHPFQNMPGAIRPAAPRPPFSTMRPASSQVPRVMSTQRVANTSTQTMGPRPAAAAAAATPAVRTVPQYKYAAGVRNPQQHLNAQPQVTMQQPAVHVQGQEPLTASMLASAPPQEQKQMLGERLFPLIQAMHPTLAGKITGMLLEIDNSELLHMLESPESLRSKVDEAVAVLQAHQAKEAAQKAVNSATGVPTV

B1: GST-EWS 356 to 656 (ctEWS) (domain or fragment, UniProt Q01844 356-656, looked up)
chain: EDSDNSAIYVQGLNDSVTLDDLADFFKQCGVVKMNKRTGQPMIHIYLDKETGKPKGDATVSYEDPPTAKAAVEWFDGKDFQGSKLKVSLARKKPPMNSMRGGLPPREGRGMPPPLRGGPGGPGGPGGPMGRMGGRGGDRGGFPPRGPRGSRGNPSGGGNVQHRAGDWQCPNPGCGNQNFAWRTECNQCKAPKPEGFLPPPFPPPGGDRGRGGPGGMRGGRGGLMDRGGPGGMFRGGRGGDRGGFRGGRGMDRGGFGGGRRGGPGGPPGPLMEQMGGRRGGRGGPGKMDKGEHRQERRDRPY
notes: also called GST-ctEWS; C terminus of EWS; source: E. coli BL21 (pGEX-6p-2), purified with magnetic GSH beads
On to B1, for which the binding result is reported as “binds”.
